Molecular target: human paraoxonase (PON1A) (human) (UniProt P27169)
Assay: cell-based or functional assay

Chain of UniProt P27169 (P27169 2-355 limits assumed): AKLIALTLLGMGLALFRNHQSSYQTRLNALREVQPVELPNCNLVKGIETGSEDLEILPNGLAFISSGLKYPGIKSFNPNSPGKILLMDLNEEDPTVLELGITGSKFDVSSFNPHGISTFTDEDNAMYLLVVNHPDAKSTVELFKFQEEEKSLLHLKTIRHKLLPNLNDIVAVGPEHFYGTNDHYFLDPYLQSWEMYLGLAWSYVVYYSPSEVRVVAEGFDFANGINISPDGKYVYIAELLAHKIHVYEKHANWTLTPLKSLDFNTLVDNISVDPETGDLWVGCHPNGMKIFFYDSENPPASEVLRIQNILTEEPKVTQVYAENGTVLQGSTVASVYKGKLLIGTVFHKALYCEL

| arylesterase activity, CHO-PON cells cultured 24 h with 10 µg/mL ApoA-I (U/mg cell protein) | increase in arylesterase activity compared to ApoA-IWT [%] | Substance | also measured |
| --- | --- | --- | --- |
| 0.067 |  | recombinant human ApoA-I K96C | reduction in arylesterase activity compared to ApoA-IWT: 30% |
| 0.126 | 30 | recombinant human ApoA-I R10C |  |
| 0.095 |  | recombinant human ApoA-I wild type (His-6 tagged) | ApoA-I concentration at which secreted PON activity is maximal (CHO-PON cell medium): 12 µg/mL; PON activity of baseline conditioned medium incubated 3 h at 37° C. with 10 µg/mL lipid-free ApoA-I postculture (relative to baseline): 94.4%; PON activity of cells grown with 10 µg/mL ApoA-I over cells grown without ApoA-I: 203%; arylesterase activity in medium at 24 h, CHO-PON cells in the presence of 10 µg/mL ApoA-I (unit/mg of cell protein): 0.087; increase in arylesterase activity on culturing CHO-PON cells with ApoA-I: 2.1 fold |

Second part, the substance before the results:

| Substance | arylesterase activity, CHO-PON cells cultured 24 h with 10 µg/mL ApoA-I (U/mg cell protein) | increase in arylesterase activity compared to ApoA-IWT [%] | also measured |
| --- | --- | --- | --- |
| recombinant human ApoA-I R61C | 0.121 | 30 |  |
| recombinant human ApoA-I R27C | 0.125 | 30 |  |
| recombinant human ApoA-I R151C (ApoA-IParis) |  |  | secreted PON arylesterase activity, CHO-PON cells cultured 24 h with 10 µg/mL ApoA-I (U/mg cell protein): 0.086 |
| recombinant human ApoA-I R173C (ApoA-IMilano) |  |  | secreted PON arylesterase activity, CHO-PON cells cultured 24 h with 10 µg/mL ApoA-I (U/mg cell protein): 0.076 |

Source: patent US20030181372A1
